The results in this text go back to US20140223606, “COMPOSITIONS AND METHODS COMPRISING SEQUENCES HAVING MEGANUCLEASE ACTIVITY” (PIONEER HI BRED INTERNATIONAL INC, published 2014).

Common to all, as to assay: cell_activity; maize
What all share (details): tags: SV40 NLS

One data set concerns the target T1, MHP77.3(L9-02) (artificial).
T1 chain: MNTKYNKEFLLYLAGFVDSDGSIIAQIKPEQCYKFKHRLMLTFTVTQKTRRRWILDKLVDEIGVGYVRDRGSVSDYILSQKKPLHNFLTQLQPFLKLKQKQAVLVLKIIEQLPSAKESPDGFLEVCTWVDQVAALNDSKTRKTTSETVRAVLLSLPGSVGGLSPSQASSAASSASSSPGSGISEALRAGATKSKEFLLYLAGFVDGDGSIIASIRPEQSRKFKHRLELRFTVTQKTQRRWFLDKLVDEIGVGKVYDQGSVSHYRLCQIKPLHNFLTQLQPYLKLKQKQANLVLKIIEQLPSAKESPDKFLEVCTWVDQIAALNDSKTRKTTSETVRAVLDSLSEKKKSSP

Another data set has as its target T2, MHP77.3(L9-12) (artificial).
T2 chain: T1 chain with R50Q, D56L, K81I, V103N, G121K, V132I, K244E, K308G

Another data set addresses T3, MHP77.3(L9-11) (artificial).
T3 chain: T1 chain with S19G, R50K, I54F, V103N, V132I, Y281F, V316A

For the next data set, the target named is T4, MHP77.3(15) (artificial).
T4 chain: T1 chain with R50Q, I54F, K81I, V103N, G121K, V132I, L153D, Y281F

A further data set addresses T5, MHP77.3 (artificial).
T5 chain: T1 chain with S19G, R50Q, I54F, K81I, V103N, G121K, V132I, L153D, Y281F

Positions count from the first letter of the chain named.

B1: MHP77 recognition site (dsDNA)
DNA 1: GGGCGGTATGTATGTCATACTA
DNA 2: TAGTATGACATACATACCGCCC
Consider B1, for which the activity with MHP77.3(L9-02) is 5 % target site mutation rate; with MHP77.3(L9-12) it was 19 % target site mutation rate; in the data set with MHP77.3(L9-11) it was 35 % target site mutation rate; with MHP77.3(15), 22 % target site mutation rate; in the data set with MHP77.3, 11 % target site mutation rate.
